B1: Kelch repeat and BTB domain-containing protein 6 (Homo sapiens), Q86V97 (parent)
chain: MQSREDAPRSRRLASPRGGKRPKKIHKPTVSAFFTGPEELKDTAHSAALLAQLKSFYDARLLCDVTIEVVTPGSGPGTGRLFPCNRNVLAAACPYFKSMFTGGMYESQQASVTMHDVDAESFEVLVDYCYTGRVSLSEANVERLYAASDMLQLEYVREACASFLARRLDLTNCTAILKFADAFGHRKLRSQAQSYIAQNFKQLSHMGSIREETLADLTLAQLLAVLRLDSLDVESEQTVCHVAVQWLEAAPKERGPSAAEVFKCVRWMHFTEEDQDYLEGLLTKPIVKKYCLDVIEGALQMRYGDLLYKSLVPVPNSSSSSSSSNSLVSAAENPPQRLGMCAKEMVIFFGHPRDPFLCCDPYSGDLYKVPSPLTCLAHTRTVTTLAVCISPDHDIYLAAQPRTDLWVYKPAQNSWQQLADRLLCREGMDVAYLNGYIYILGGRDPITGVKLKEVECYNVKRNQWALVAPLPHSFLSFDLMVIRDYLYALNSKRMFCYDPSHNMWLKCVSLKRNDFQEACVFNEEIYCICDIPVMKVYNPVRAEWRQMNNIPLVSETNNYRIIKHGQKLLLITSRTPQWKKNRVTVYEYDIRGDQWINIGTTLGLLQFDSNFFCLSARVYPSCLEPGQSFLTEEEEIPSESSTEWDLGGFSEPDSESGSSSSLSDDDFWVRVAPQ
B2: Kelch repeat and BTB domain-containing protein 7 (Homo sapiens), Q8WVZ9 (parent)
chain: MQSREDVPRSRRLASPRGGRRPKRISKPSVSAFFTGPEELKDTAHSAALLAQLKSFYDARLLCDVTIEVVTPGSGPGTGRLFSCNRNVLAAACPYFKSMFTGGMYESQQASVTMHDVDAESFEVLVDYCYTGRVSLSEANVQRLYAASDMLQLEYVREACASFLARRLDLTNCTAILKFADAFDHHKLRSQAQSYIAHNFKQLSRMGSIREETLADLTLAQLLAVLRLDSLDIESERTVCHVAVQWLEAAAKERGPSAAEVFKCVRWMHFTEEDQDYLEGLLTKPIVKKYCLDVIEGALQMRYGDLLYKSLVPVPNSSSSSSSSNSLVSAAENPPQRLGMCAKEMVIFFGHPRDPFLCYDPYSGDIYTMPSPLTSFAHTKTVTSSAVCVSPDHDIYLAAQPRKDLWVYKPAQNSWQQLADRLLCREGMDVAYLNGYIYILGGRDPITGVKLKEVECYSVQRNQWALVAPVPHSFYSFELIVVQNYLYAVNSKRMLCYDPSHNMWLNCASLKRSDFQEACVFNDEIYCICDIPVMKVYNPARGEWRRISNIPLDSETHNYQIVNHDQKLLLITSTTPQWKKNRVTVYEYDTREDQWINIGTMLGLLQFDSGFICLCARVYPSCLEPGQSFITEEDDARSESSTEWDLDGFSELDSESGSSSSFSDDEVWVQVAPQRNAQDQQGSL

Variants of: B1
Settings: with tiam1_human TIAM1, Q13009
Target sequence in this assay (Q13009 whole entry): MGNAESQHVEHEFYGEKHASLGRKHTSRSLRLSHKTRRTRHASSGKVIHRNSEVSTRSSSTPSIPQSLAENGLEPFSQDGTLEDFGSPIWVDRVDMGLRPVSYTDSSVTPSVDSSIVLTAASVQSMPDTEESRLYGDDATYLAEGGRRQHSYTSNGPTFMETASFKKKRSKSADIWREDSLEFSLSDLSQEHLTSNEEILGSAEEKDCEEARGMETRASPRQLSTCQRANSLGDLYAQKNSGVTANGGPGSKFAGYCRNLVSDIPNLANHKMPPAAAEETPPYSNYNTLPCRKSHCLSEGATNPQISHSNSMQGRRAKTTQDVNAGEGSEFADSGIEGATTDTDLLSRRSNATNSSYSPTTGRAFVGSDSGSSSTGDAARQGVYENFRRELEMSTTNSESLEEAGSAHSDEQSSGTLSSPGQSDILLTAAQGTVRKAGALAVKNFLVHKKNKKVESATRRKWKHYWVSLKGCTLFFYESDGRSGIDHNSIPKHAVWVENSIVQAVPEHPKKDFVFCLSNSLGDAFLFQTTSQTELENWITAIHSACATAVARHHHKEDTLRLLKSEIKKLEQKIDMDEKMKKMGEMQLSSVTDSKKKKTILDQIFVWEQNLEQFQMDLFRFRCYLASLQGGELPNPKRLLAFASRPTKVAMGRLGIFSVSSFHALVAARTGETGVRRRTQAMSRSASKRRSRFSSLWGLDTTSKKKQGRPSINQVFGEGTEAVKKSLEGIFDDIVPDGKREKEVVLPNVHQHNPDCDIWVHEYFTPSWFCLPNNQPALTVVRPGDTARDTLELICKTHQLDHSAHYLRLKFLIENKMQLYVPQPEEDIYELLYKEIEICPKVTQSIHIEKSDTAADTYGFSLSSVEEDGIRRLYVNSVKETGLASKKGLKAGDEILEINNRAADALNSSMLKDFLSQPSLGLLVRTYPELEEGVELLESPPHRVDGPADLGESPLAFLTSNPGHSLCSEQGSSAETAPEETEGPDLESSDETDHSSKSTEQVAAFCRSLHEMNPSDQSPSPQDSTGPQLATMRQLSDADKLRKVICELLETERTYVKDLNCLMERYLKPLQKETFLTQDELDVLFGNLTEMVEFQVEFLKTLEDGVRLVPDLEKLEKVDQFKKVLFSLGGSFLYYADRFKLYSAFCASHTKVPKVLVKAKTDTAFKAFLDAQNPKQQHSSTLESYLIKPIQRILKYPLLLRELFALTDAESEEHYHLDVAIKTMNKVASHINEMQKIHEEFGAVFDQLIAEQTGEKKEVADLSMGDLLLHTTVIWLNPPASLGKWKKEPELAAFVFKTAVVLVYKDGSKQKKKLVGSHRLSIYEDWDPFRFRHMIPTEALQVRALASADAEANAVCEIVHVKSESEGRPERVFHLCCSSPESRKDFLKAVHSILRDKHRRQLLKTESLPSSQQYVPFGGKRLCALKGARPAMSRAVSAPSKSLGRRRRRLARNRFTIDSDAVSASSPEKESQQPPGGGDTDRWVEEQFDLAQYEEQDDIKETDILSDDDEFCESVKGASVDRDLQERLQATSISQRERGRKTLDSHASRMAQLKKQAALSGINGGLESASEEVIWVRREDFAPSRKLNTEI

effect of a mutation on the interaction	Variant
decreasing interaction strength	W668A

Variants of: B1
Settings: with cul3_human CUL3, Q13618

effect of a mutation on the interaction	Variant
disrupting interaction strength	M99A

Variants of: B2
Settings: with gbrap_human GABARAP

effect of a mutation on the interaction	Variant
with no effect	F122A
with no effect	F649A
with no effect	Y559A
decreasing interaction strength	W668A

Variants of: B2
Settings: with gbrl2_human GABARAPL2, P60520
Chain of gbrl2_human GABARAPL2, P60520 (P60520 whole entry): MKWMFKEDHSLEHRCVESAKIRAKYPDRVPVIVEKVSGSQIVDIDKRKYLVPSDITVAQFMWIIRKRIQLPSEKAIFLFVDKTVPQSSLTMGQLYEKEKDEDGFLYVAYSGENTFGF

effect of a mutation on the interaction	Variant
with no effect	F122A
with no effect	F649A
with no effect	Y559A
with no effect	W668A

Variants of: B2
Settings: with mlp3b_human MAP1LC3B

effect of a mutation on the interaction	Variant
with no effect	F122A
with no effect	F649A
with no effect	Y559A
disrupting interaction strength	W668A

Variants of: B2
Settings: with tiam1_human TIAM1, Q13009
Target sequence in this assay (Q13009 whole entry): as the sequence (Q13009 whole entry) above

effect of a mutation on the interaction	Variant
with no effect	M99A
decreasing interaction strength	W668A

Variants of: B2
Settings: with cul3_human CUL3, Q13618

effect of a mutation on the interaction	Variant
disrupting interaction strength	M99A
